{"source": "paper PMC3201939", "origin": "cited, not measured here", "target": "Cys22 (UniProt position 23, FIKPTCPYCRR)", "data": [{"substance": "Glutaredoxin 1 (Grx1, thioltransferase) (Homo sapiens)", "values": [{"measurement": "pKa", "result": 3.5}]}]}
